Measurements taken from the supplement of paper PMC7877785.
± gives the uncertainty stated by the source.

Experiment: self-splicing fitness, log relative to wild type (ln ratio); higher = more splicing; Tetrahymena group I intron in knt gene, E. coli kanamycin selection, DiMSum; sequences stand for … in CUCUCU…GGAGGGAAAAGUUAUCAGGCAUGCACCUGGUAGCUAGUCUUUAAACCAAUAGAUUGCAUCGGUUUAAAAGGCAAGACCGUCAAAUUGCGGGAAAGGGGUCAACAGCCGUUCAGUACCAAGUCUCAGGGGAAACUUUGAGAUGGCCUUGCAAAGGGUAUGGUAAUAAGCUGACGGACAUGGUCCUAACCACGCAGCCAAGUCCUAAGUCAACAGAUCUUCUGUUGAUAUGGAUGCAGUUCACAGACUAAAUGUCGGUCGGGGAAGAUGUAUUCUUCUCAUAAGAUAUAGUCGGACCUCUCCUUAAUGGGAGCUAGCGGAUGAAGUGAUGCAACACUGGAGCCGCUGGGAACUAAUUUGUAUGCGAAAGUAUAUUGAUUAGUUUUGGAGUACUCGUGGUCG
Method in brief: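 DiMSum derived fitness as the error-weighted combination of fold changes across replicates, kanamycin versus no kanamycin, normalised to wild type. E. coli BL21(DE3) held the library, which randomised all eight P1ex-region intron nucleotides within the knt kanamycin-resistance gene on pET-22b(+). Six replicate transformations grew overnight at 37°C or 30°C on LB agar with or without 25 μg/mL kanamycin, also containing 100 μg/mL carbenicillin, 50 μM IPTG and 0.2% rhamnose, and pooled colonies were amplicon-sequenced on an Illumina HiSeq 2500.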

Sequence	self-splicing fitness (ln) (30 °C)	self-splicing fitness (ln) (37 °C)
AAGAAGCAAUAUUACGGGGG	-2.79 ± 0.21	-2.09 ± 0.23
AAGAAGCAAUAUUACGGUAG	-3.76 ± 0.19	-1.83 ± 0.17
AAGAAGCAAUAUUACGGUUG	-2.72 ± 0.092	-1.32 ± 0.11
AAGAAGCAAUAUUACGUAAC	-2.35 ± 0.14	-1.2 ± 0.12
AAGAAGCAAUAUUACGUACG	-0.925 ± 0.092	-0.719 ± 0.11
AAGAAGCAAUAUUACGUCAC	-3.46 ± 0.21	-3 ± 0.28
AAGAAGCAAUAUUACGUGCG	-0.93 ± 0.079	-0.0711 ± 0.1
AAGAAGCAAUAUUACGUUAC	-3.33 ± 0.17	-3.57 ± 0.25
AAGAAGCAAUAUUACGUUCU	-2.55 ± 0.11	-1.26 ± 0.1
AAGCAGCAAUAUUACGAAGA	-3.03 ± 0.19	-1.44 ± 0.097
AAGCAGCAAUAUUACGACCC	-1.78 ± 0.14	-0.112 ± 0.15
AAGCAGCAAUAUUACGACGC	-0.811 ± 0.092	-0.525 ± 0.13
AAGCAGCAAUAUUACGACUC	-0.122 ± 0.097	0.677 ± 0.13
AAGCAGCAAUAUUACGAGUG	-2.99 ± 0.1	-2.69 ± 0.11
AAGCAGCAAUAUUACGAUUG	-2.54 ± 0.13	-1.9 ± 0.14
AAGCAGCAAUAUUACGCAAC	-2.62 ± 0.12	-1.49 ± 0.13
AAGCAGCAAUAUUACGCACA	-0.331 ± 0.082	0.0315 ± 0.11
AAGCAGCAAUAUUACGGACG	-2.62 ± 0.14	-0.565 ± 0.14
AAGCAGCAAUAUUACGGACU	-0.985 ± 0.078	-0.121 ± 0.11
AAGCAGCAAUAUUACGGAGC	-3.81 ± 0.37	-3.05 ± 0.23
AAGCAGCAAUAUUACGGGCU	-1.64 ± 0.14	-1.93 ± 0.21
AAGCAGCAAUAUUACGGGUG	-3.43 ± 0.13	-1.85 ± 0.1
AAGCAGCAAUAUUACGGUAA	-1.25 ± 0.091	-0.944 ± 0.094
AAGCAGCAAUAUUACGGUCA	-1.19 ± 0.088	0.242 ± 0.1
AAGCAGCAAUAUUACGUACA	-1.43 ± 0.091	-0.617 ± 0.11
AAGCAGCAAUAUUACGUAUC	-3.07 ± 0.1	-1.62 ± 0.12

Sequence	self-splicing fitness (ln) (30 °C)	self-splicing fitness (ln) (37 °C)
AAGCAGCAAUAUUACGUCCG	-2.15 ± 0.12	-1.13 ± 0.11
AAGCAGCAAUAUUACGUGAA	-1.35 ± 0.067	-1.05 ± 0.077
AAGCAGCAAUAUUACGUGAG	-1.07 ± 0.045	-0.437 ± 0.066
AAGCAGCAAUAUUACGUUAC	-3.42 ± 0.29	-1.35 ± 0.18
AAGCAGCAAUAUUACGUUCC	-1.73 ± 0.11	-1.54 ± 0.17
AAGGAGCAAUAUUACGACGC	-4.09 ± 0.43	-1.13 ± 0.21
AAGGAGCAAUAUUACGACUA	-1.51 ± 0.17	-0.705 ± 0.27
AAGGAGCAAUAUUACGAGCA	-2.24 ± 0.45	-0.592 ± 0.4
AAGGAGCAAUAUUACGAUCA	-1.18 ± 0.36	
AAGGAGCAAUAUUACGAUCC		0.127 ± 0.31
AAGGAGCAAUAUUACGCCGC		-2.04 ± 0.5
AAGGAGCAAUAUUACGCGAU	-2.06 ± 0.15	-2.29 ± 0.28
AAGGAGCAAUAUUACGCUAU	-3.76 ± 0.4	-1.69 ± 0.26
AAGGAGCAAUAUUACGGAUG	-3.8 ± 0.21	-3.29 ± 0.35
AAGGAGCAAUAUUACGGCCC	-2.25 ± 0.26	-1.37 ± 0.34
AAGGAGCAAUAUUACGGGAC	-2.34 ± 0.23	-2.36 ± 0.41
AAGGAGCAAUAUUACGGUCC	-2.13 ± 0.18	-2.03 ± 0.27
AAGGAGCAAUAUUACGUAAU	-3.8 ± 0.16	-2.27 ± 0.15
AAGGAGCAAUAUUACGUCUA	-0.839 ± 0.24	-0.933 ± 0.27
AAGGAGCAAUAUUACGUGGC	-3.79 ± 0.19	-2.37 ± 0.2
AAGUAGCAAUAUUACGAGCG	-0.709 ± 0.14	-1.11 ± 0.19
AAGUAGCAAUAUUACGAUAG	-2.72 ± 0.16	-2.64 ± 0.36
AAGUAGCAAUAUUACGAUCG	-1.43 ± 0.1	-0.453 ± 0.15
AAGUAGCAAUAUUACGCAUC	-3.84 ± 0.47	-1.08 ± 0.23
AAGUAGCAAUAUUACGCCAG	-2.64 ± 0.21	-0.996 ± 0.24
AAGUAGCAAUAUUACGCUAG	-1.57 ± 0.17	-1.04 ± 0.2

Sequence	self-splicing fitness (ln) (30 °C)	self-splicing fitness (ln) (37 °C)
AAGUAGCAAUAUUACGCUGC		-0.747 ± 0.19
AAGUAGCAAUAUUACGGAAU	-3.66 ± 0.2	-1.52 ± 0.16
AAGUAGCAAUAUUACGGAUC	-1.17 ± 0.083	-0.819 ± 0.12
AAGUAGCAAUAUUACGGCCG	-1.34 ± 0.12	-0.293 ± 0.18
AAGUAGCAAUAUUACGGCUA	-1.01 ± 0.085	-0.475 ± 0.095
AAGUAGCAAUAUUACGGCUC	-0.15 ± 0.12	0.32 ± 0.15
AAGUAGCAAUAUUACGGUAA	-1.12 ± 0.17	-0.903 ± 0.13
AAGUAGCAAUAUUACGUAAA	-1.09 ± 0.095	-0.434 ± 0.14
AAGUAGCAAUAUUACGUAAG	-2.48 ± 0.13	-1.43 ± 0.14
AAGUAGCAAUAUUACGUACC	-0.997 ± 0.16	-0.0515 ± 0.15
AAGUAGCAAUAUUACGUACG	-1.29 ± 0.088	-0.0022 ± 0.11
AAGUAGCAAUAUUACGUCUA	-0.618 ± 0.09	0.263 ± 0.1
AAGUAGCAAUAUUACGUGCG	-1.48 ± 0.12	-0.495 ± 0.15
AAGUAGCAAUAUUACGUGUG	-2.07 ± 0.099	-1.15 ± 0.094
AAUAAGCAAUAUUACGAAAG	-3.68 ± 0.27	-1.37 ± 0.22
AAUAAGCAAUAUUACGAACC	-1.33 ± 0.15	-0.414 ± 0.18
AAUAAGCAAUAUUACGAAGA	-1.52 ± 0.26	-1.92 ± 0.32
AAUAAGCAAUAUUACGAAUC	-2.45 ± 0.21	-0.866 ± 0.23
AAUAAGCAAUAUUACGACGC	-0.19 ± 0.093	0.0933 ± 0.12
AAUAAGCAAUAUUACGACGG	-2.35 ± 0.15	-1.34 ± 0.19
AAUAAGCAAUAUUACGACUA	-0.696 ± 0.12	-0.486 ± 0.093
AAUAAGCAAUAUUACGAGCG	-1.5 ± 0.15	-0.155 ± 0.17
AAUAAGCAAUAUUACGAUCG	-1 ± 0.081	-0.0681 ± 0.096
AAUAAGCAAUAUUACGCACC	-0.414 ± 0.13	0.346 ± 0.13
AAUAAGCAAUAUUACGCAGG	-1.85 ± 0.14	-2.12 ± 0.15
